Data reported in article PMC3947186 (Structure (London, England : 1993), 2013).
Like-named read-outs stand apart in the source and are kept apart here. Each block holds one molecule with its values, some of them ahead of it.

What was measured:
Assay in all cases: ITC
[1] = target: mouse CSL core domain (residues 53-474), wild type (mouse) (UniProt P31266)
[2] = target: mouse CSL core domain (residues 53-474), wild type (mouse) (UniProt P31266); remark: listed apart in the source
[3] = target: BTD of mouse CSL (residues 203-393) (mouse) (UniProt P31266)
BTD of mouse CSL (residues 203-393) (mouse), sequence (P31266 203-393): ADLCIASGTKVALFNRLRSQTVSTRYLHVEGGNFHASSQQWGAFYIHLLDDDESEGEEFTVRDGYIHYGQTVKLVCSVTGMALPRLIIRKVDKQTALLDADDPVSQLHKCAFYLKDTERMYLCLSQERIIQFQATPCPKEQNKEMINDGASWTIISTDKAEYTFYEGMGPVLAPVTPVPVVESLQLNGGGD

[4] = target: mouse CSL core domain (53-474) mutant A284R (mouse) (UniProt P31266)
mouse CSL core domain (53-474) mutant A284R (mouse), sequence (P31266 53-474 A284R): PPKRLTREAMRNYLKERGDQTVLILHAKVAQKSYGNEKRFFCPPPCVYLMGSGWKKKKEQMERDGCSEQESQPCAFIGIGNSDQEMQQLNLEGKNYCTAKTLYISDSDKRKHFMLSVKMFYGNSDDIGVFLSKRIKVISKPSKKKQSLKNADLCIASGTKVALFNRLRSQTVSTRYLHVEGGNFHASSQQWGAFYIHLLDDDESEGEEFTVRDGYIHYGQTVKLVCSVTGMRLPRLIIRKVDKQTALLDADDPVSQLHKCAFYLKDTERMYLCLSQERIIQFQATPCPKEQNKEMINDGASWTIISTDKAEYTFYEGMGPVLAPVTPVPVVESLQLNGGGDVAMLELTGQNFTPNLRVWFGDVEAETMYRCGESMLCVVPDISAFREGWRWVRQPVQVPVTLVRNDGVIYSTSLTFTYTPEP

[5] = target: mouse CSL core domain (53-474) mutant F261R (mouse) (UniProt P31266)
mouse CSL core domain (53-474) mutant F261R (mouse), sequence (P31266 53-474 F261R): as the sequence (P31266 53-474 A284R) above, with F209R, R232A counted along it

[6] = target: mouse CSL core domain (53-474) mutant Q333R (mouse) (UniProt P31266)
mouse CSL core domain (53-474) mutant Q333R (mouse), sequence (P31266 53-474 Q333R): as the sequence (P31266 53-474 A284R) above, with R232A, Q281R counted along it

[7] = target: mouse CSL core domain (53-474) mutant V263R (mouse) (UniProt P31266)
mouse CSL core domain (53-474) mutant V263R (mouse), sequence (P31266 53-474 V263R): as the sequence (P31266 53-474 A284R) above, with V211R, R232A counted along it

[8] = target: mouse CSL core domain (residues 53-474), wild type (mouse) (UniProt P31266); remark: listed apart in the source
[9] = target: mouse CSL core domain (residues 53-474), wild type (mouse, UniProt P31266 53-474)
mouse CSL core domain (residues 53-474), wild type, sequence (P31266 53-474): as the sequence (P31266 53-474 A284R) above, with R232A counted along it

[10] = target: mouse CSL core domain (residues 53-474), wild type (mouse) (UniProt P31266); remark: listed apart in the source

mouse CSL core domain (residues 53-474), wild type (mouse), sequence (P31266 53-474): as the sequence (P31266 53-474 A284R) above, with R232A counted along it

Ka [1]: 1.2e+08 M⁻¹
Kd [1]: 12 nM
dH [1]: -16 kcal/mol
Molecule: KyoT2 KD196AA (in the construct 184-210) (peptide)

Kd [1]: 69 nM
dH [1]: -13.7 kcal/mol
Molecule: KyoT2 V186A (in the construct 184-210) (peptide)

Ka [1]: 2e+07 M⁻¹
Kd [1]: 22 nM
dH [1]: -7.5 kcal/mol
Molecule: RAM domain of Notch1, mutant Q1763A (from UniProt P46531 19-2555) (domain or fragment)

Ka [1]: 6.8e+07 M⁻¹
Kd [1]: 15 nM
dH [1]: -18.2 kcal/mol
Molecule: RAM domain of Notch1, wild type (from UniProt P46531 19-2555) (domain or fragment)

Ka [1]: 7.1e+07 M⁻¹
Kd [1]: 15 nM
dH [1]: -16 kcal/mol
Molecule: mouse KyoT2 (residues 182-210) (peptide)

Ka [1]: 3.1e+07 M⁻¹
dH [1]: -13.1 kcal/mol
Molecule: mouse KyoT2 (residues 184-200) (peptide)

Ka [2]: 1.1e+08 M⁻¹
Kd [2]: 11 nM
dH [2]: -11 kcal/mol
Kd [3]: 26 nM
dH [3]: -13.6 kcal/mol
Kd [4]: 7200 nM
dH [4]: -10.5 kcal/mol
Ka [5]: 340000 M⁻¹
Kd [5]: 6300 nM
dH [5]: -5.6 kcal/mol
Ka [6]: 2e+07 M⁻¹
Kd [6]: 51 nM
dH [6]: -11.7 kcal/mol
Ka [7]: 3.1e+07 M⁻¹
Kd [7]: 19 nM
dH [7]: -12.9 kcal/mol
Ka [1]: 8.5e+07 M⁻¹
Kd [1]: 12 nM
dH [1]: -15.5 kcal/mol
stoichiometry N [1]: 1
Ka [8]: 9.4e+07 M⁻¹
Kd [8]: 11 nM
dH [8]: -14.6 kcal/mol
Molecule: mouse KyoT2 (residues 184-210) (peptide)

binding result [9]: binds
B1: KyoT2 peptide APVWWPMK (residues 188-195) (peptide)
peptide: APVWWPMK

fold enhancement in binding against the peptide APVWWPMK [9]: ~40 fold
B2: KyoT2 peptide KAPVWWPMKD (residues 187-196) (peptide)
peptide: KAPVWWPMKD

Kd [10]: 8000 nM
B3: KyoT2 tetrapeptide VWWP (residues 190-193) (peptide)
peptide: VWWP
